Experimental data published in patent publication US20240034816A1 (Sanofi, published 2024).
“And” between values parts separate entries of the source, which are not always exact repeats. Equal values may be shown once.

Columns and labels:
cynomolgus CD16 [1] = target: T1, cynomolgus CD16 (cynomolgus, UniProt Q8SPW2 17-208); assay: SPR, fit Two State Reaction, Exp No 1
T1 construct: also called CyFcyRIII

[2] = target: T2, human CD16a (human FcγRIIIA), V isoform (human, UniProt P08637 17-208); assay: SPR, fit Two State Reaction, Exp No 1
T2 construct: also called HuFcyRIIIaV; CD16a (V176)
T2 sequence (P08637 17-208 F176V limits assumed): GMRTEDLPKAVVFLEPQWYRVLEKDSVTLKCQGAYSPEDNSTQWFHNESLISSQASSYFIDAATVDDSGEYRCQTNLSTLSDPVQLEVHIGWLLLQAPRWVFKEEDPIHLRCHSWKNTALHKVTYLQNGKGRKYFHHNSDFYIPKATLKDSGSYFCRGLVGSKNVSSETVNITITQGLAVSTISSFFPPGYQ

cynomolgus CD16 [3] = target: T1, cynomolgus CD16; assay: SPR, fit Two State Reaction, Exp No 2
[4] = target: T2, human CD16a (human FcγRIIIA), V isoform; assay: SPR, fit Two State Reaction, Exp No 2
cynomolgus CD16 [5] = target: T1, cynomolgus CD16; assay: SPR, fit Two State Reaction, Exp No 3
[6] = target: T2, human CD16a (human FcγRIIIA), V isoform; assay: SPR, fit Two State Reaction, Exp No 3
[7] = target: human neonatal Fc receptor (FcRn) (human, UniProt P55899 24-297; P61769 21-119); assay: SPR, binding to huFcRn at pH 6.0
Sequence of human neonatal Fc receptor (FcRn) (P55899 24-297 limits assumed, chain 1 of 2): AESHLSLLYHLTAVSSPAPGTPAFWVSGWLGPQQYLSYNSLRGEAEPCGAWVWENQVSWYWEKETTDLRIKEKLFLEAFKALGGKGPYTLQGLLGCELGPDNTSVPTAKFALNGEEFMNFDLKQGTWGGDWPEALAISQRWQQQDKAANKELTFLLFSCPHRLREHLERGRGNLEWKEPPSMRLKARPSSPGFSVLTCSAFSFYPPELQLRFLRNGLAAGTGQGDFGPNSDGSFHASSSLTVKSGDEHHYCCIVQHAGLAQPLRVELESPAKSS
Sequence of human neonatal Fc receptor (FcRn) (P61769 21-119 limits assumed, chain 2 of 2): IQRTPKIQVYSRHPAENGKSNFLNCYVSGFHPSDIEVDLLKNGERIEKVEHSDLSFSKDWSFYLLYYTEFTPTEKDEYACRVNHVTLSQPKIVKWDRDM

cynomolgus CD32a [8] = target: T3, cynomolgus CD32a (cynomolgus); assay: SPR, fit Steady State Affinity, Exp No 3
T3 construct: also called CyFcyRIIa

cynomolgus CD32b [9] = target: T4, cynomolgus CD32b (cynomolgus); assay: SPR, fit Steady State Affinity, Exp No 3
T4 construct: also called CyFcyRIIb

[10] = target: T5, human CD32a (human FcγRIIA) (human, UniProt P12318 34-217, limits assumed); assay: SPR, fit Steady State Affinity, Exp No 3
T5 construct: also called HuFcyRIIa
T5 sequence (looked up): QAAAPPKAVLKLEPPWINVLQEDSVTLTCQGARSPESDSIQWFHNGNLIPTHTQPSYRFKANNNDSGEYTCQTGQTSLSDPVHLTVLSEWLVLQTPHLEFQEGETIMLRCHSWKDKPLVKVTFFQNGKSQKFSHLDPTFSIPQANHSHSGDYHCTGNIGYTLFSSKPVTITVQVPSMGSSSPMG

[11] = target: T6, human CD32b (human FcγRIIB) (human, UniProt P31994 43-217, limits assumed); assay: SPR, fit Steady State Affinity, Exp No 3
T6 construct: also called HuFcyRIIb
T6 sequence (looked up): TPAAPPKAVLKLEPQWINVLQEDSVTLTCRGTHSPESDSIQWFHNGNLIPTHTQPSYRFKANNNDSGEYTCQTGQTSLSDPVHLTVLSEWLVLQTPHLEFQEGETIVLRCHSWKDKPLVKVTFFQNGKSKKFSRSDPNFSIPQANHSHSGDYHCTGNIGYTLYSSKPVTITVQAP

[12] = target: T7, human CD16b (human FcgRIIIB) (human, UniProt O75015 17-200, limits assumed); assay: SPR, fit Steady State Affinity, Exp No 3
T7 construct: also called HuFcyRIIIb
T7 sequence (O75015 17-200 limits assumed): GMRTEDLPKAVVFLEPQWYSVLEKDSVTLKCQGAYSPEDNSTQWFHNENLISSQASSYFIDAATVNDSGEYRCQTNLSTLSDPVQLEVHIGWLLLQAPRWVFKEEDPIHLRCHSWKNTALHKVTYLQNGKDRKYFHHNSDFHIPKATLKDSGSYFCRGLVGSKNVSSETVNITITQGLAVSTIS

human CD64 (human FcγRI) = target: T8, human CD64 (human FcγRI) (human, UniProt P12314 16-292, limits assumed); assay: SPR, fit 1:1 Binding, mean of 3 experiments
T8 construct: also called HuFcyRI
T8 sequence (P12314 16-292 limits assumed): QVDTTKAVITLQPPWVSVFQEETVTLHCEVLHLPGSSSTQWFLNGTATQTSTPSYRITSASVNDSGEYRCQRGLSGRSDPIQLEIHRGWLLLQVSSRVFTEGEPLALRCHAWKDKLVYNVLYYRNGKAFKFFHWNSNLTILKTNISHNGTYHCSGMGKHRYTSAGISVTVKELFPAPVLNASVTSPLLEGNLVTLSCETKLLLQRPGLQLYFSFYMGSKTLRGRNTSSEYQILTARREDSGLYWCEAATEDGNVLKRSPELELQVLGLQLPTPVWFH

cynomolgus CD16 [13] = target: T1, cynomolgus CD16; assay: SPR, fit Two State Reaction, mean of 3 experiments
[14] = target: T2, human CD16a (human FcγRIIIA), V isoform; assay: SPR, fit Two State Reaction, mean of 3 experiments
cynomolgus CD32a [15] = target: T3, cynomolgus CD32a; assay: SPR, fit Steady State Affinity, mean of 3 experiments
cynomolgus CD32b [16] = target: T4, cynomolgus CD32b; assay: as above
[17] = target: T5, human CD32a (human FcγRIIA); assay: as above
[18] = target: T6, human CD32b (human FcγRIIB); assay: as above
[19] = target: T7, human CD16b (human FcgRIIIB); assay: as above
[20] = target: T9, human BCMA on RPMI 8226 multiple myeloma cells (human, UniProt Q02223 1-184); assay: flow cytometry titration on RPMI 8226 cells, detection with goat anti-human IgG Fcγ-PE, 4-parameter fit; mean of 5 independent titrations
T9 construct: whole, on cells; also called BCMA on RPMI cells
T9 sequence (looked up): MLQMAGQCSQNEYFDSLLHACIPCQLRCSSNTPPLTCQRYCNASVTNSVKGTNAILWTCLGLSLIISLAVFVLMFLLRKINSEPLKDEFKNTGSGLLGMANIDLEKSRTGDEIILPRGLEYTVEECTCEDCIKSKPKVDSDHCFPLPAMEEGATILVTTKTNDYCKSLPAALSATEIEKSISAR
Description: (§1) After staining, cells were resuspended in BD Cellfix and analyzed by flow cytometry. Parameters were recorded and analysed with FlowJo software. Staining EC50 values were calculated with GraphPad prism using 4 parameter logistics non-linear regression model.

[21] = target: T10, human NKp46 on NK cells purified from PBMC of healthy donors (human, UniProt O76036 22-304); assay: flow cytometry titration on resting human NK cells from healthy donors, detection with goat anti-human IgG Fcγ-PE, 4-parameter fit; NK cells also carry CD16a
T10 construct: whole, on cells; also called NKp46 on donor NK cells
T10 sequence (O76036 22-304): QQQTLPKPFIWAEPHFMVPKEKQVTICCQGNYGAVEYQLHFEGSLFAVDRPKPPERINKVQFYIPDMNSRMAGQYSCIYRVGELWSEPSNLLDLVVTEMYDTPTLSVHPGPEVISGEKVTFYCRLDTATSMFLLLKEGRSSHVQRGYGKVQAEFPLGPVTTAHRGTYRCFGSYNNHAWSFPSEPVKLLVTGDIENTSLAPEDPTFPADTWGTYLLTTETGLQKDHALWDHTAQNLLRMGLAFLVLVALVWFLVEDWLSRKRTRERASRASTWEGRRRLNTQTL
Description: as §1

[22] = target: T10, human NKp46 on NK cells purified from …; assay: flow cytometry titration on resting human NK cells from healthy donors, detection with goat anti-human IgG Fcγ-PE, 4-parameter fit; mean of 3 NK donors; NK cells also carry CD16a
Description: as §1

T1 sequence (Q8SPW2 17-208): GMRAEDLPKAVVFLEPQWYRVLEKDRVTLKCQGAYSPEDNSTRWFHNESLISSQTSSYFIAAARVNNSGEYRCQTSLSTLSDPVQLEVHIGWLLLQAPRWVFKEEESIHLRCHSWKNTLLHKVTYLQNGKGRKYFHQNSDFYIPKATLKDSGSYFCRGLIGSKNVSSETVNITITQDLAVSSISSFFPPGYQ

B1: NKp46-BCMA_Fc-ADE-DSB NKCE (bispecific antibody, human IgG1, kappa)
light: QTVVTQEPSLTVSPGGTVTLTCASSTGTVTPSNYANWVQQKPGQAFRGLIGDNNSRPPGTPARFSASLLGGKAALTLSGVQPEDEAEYYCALWFGNQWVFGGGTKLTVLGGGGSGGGGSDIQMTQSPSSLSASVGDRVTITCRASQDISNYLNWYQQKPGKAPKLLIYYTSRLHSGVPSRFSGSGSGTDFTFTISSLQPEDIATYFCQQGNTRPWTFGGGTKVEIKGGGGSGGGGSRTVAAPSVFIFPPSDEQLKSGTASVVCLLNNFYPREAKVQWKVDNALQSGNSQESVTEQDSKDSTYSLSSTLTLSKADYEKHKVYACEVTHQGLSSPVTKSFNRGEC
heavy: QVQLVQSGAEVKKPGSSVKVSCKASGYTFSDYVINWVRQAPGQGLEWMGEIYPGSGTNYYNEKFKAKATITADKSTSTAYMELSSLRSEDTAVYYCARRGRYGLYAMDYWGQGTTVTVSSQVQLVESGGGVVQPGRSLRLSCAASGFTFSNFGMHWVRQAPGRGLEWVAVIWSDETNRYYADSVKGRFTVSRDNVKSTVYLQMNSLISEDTAVYYCARDQQYCSSDSCFTWFDPWGQGTLVTVSSASTKGPSVFPLAPSSKSTSGGTAALGCLVKDYFPEPVTVSWNSGALTSGVHTFPAVLQSSGLYSLSSVVTVPSSSLGTQTYICNVNHKPSNTKVDKKVEPKSCDKTHTCPPCPAPELLAGPDVFLFPPKPKDTLMISRTPEVTCVVVDVSHEDPEVKFNWYVDGVEVHNAKTKPCEEQYNSTYRCVSVLTVLHQDWLNGKEYKCKVSNKALPAPEEKTISKAKGQPREPQVYTLPPCRDELTKNQVSLWCLVKGFYPSDIAVEWESNGQPENNYKTTPPVLDSDGSFFLYSKLTVDKSRWQQGNVFSCSVMHEALHNHYTQKSLSLSPG
chain: DKTHTCPPCPAPELLAGPDVFLFPPKPKDTLMISRTPEVTCVVVDVSHEDPEVKFNWYVDGVEVHNAKTKPCEEQYNSTYRCVSVLTVLHQDWLNGKEYKCKVSNKALPAPEEKTISKAKGQPREPQVCTLPPSRDELTKNQVSLSCAVKGFYPSDIAVEWESNGQPENNYKTTPPVLDSDGSFFLVSKLTVDKSRWQQGNVFSCSVMHEALHNRFTQKSLSLSPG
B1 showed a Kd (cynomolgus CD16 [1]) of 10 nM, a Kd [2] of 11.7 nM and a Kd (cynomolgus CD16 [3]) of 9.3 nM. The Kd [4] was 12.1 nM, the Kd (cynomolgus CD16 [5]) was 15.7 nM and the Kd [6] was 16.5 nM. It also gave a Kd [7] of 756 nM, a Kd (cynomolgus CD32a [8]) of 1700 nM and a Kd (cynomolgus CD32b [9]) of 1300 nM. It also gave a Kd [10] of 963 nM, a Kd [11] of 1420 nM and a Kd [12] of 2330 nM. For the same binder, the Kd (human CD64 (human FcγRI)) was 0.32 nM, the Kd (cynomolgus CD16 [13]) was 11.7 nM and the Kd [14] was 13.4 nM. For the same binder, the Kd (cynomolgus CD32a [15]) was 1500 nM, the Kd (cynomolgus CD32b [16]) was 1080 nM and the Kd [17] was 678 nM. It also gave a Kd [18] of 1280 nM, a Kd [19] of 1760 nM and an EC50 [20] of 1.33 µg/mL. For the same binder, the EC50 [21] was 0.585 µg/mL and 0.863 µg/mL and 0.481 µg/mL and the EC50 [22] was 0.643 µg/mL.
